Measurements reported in the Immune Epitope Database (IEDB).

Tests used:
HLA-B*08:01 = assay: IEDB peptide-MHC binding, purified MHC/competitive/fluorescence; ≥ and ≤ were set here for values at or beyond the usual limits of such assays
HLA-A*02:01 [1] = assay: as above
HLA-A*24:02 [2] = assay: IEDB peptide-MHC binding, purified MHC/competitive/fluorescence; filed as Kd, often an IC50 or EC50 that approximates it; ≥ and ≤ were set here for values at or beyond the usual limits of such assays
HLA-A*24:02 [3] = assay: IEDB peptide-MHC binding, purified MHC/competitive/fluorescence; ≥ and ≤ were set here for values at or beyond the usual limits of such assays; conditions: source organism: Variola virus
HLA-B*27:05 = assay: IEDB peptide-MHC binding, purified MHC/competitive/fluorescence; filed as Kd, often an IC50 or EC50 that approximates it; ≥ and ≤ were set here for values at or beyond the usual limits of such assays; conditions: source organism: Orthohantavirus dobravaense
HLA-B*15:01 [4] = assay: as above
HLA-B*39:01 = assay: as above
HLA-A*02:01 [5] = assay: as above
HLA-A*69:01 = assay: as above
HLA-B*51:01 = assay: as above; conditions: source organism: Orthohantavirus dobravaense
HLA-B*57:01 = assay: as above
HLA-B*15:17 = assay: as above
HLA-A*26:01 = assay: as above
HLA-B*46:01 = assay: as above
HLA-B*18:01 = assay: as above
HLA-A*29:02 [6] = assay: IEDB peptide-MHC binding, purified MHC/direct/fluorescence; filed as Kd, often an IC50 or EC50 that approximates it; ≥ and ≤ were set here for values at or beyond the usual limits of such assays; conditions: source organism: Orthohantavirus sangassouense
HLA-A*02:16 [7] = assay: as above; conditions: source organism: Orthohantavirus sangassouense
HLA-A*03:01 [8] = assay: as above; conditions: source organism: Orthohantavirus sangassouense
HLA-A*24:03 [9] = assay: as above; conditions: source organism: Orthohantavirus sangassouense
HLA-A*23:01 [10] = assay: as above; conditions: source organism: Orthohantavirus sangassouense
HLA-A*02:19 [11] = assay: as above; conditions: source organism: Orthohantavirus sangassouense
HLA-A*02:11 [12] = assay: as above; conditions: source organism: Orthohantavirus sangassouense
HLA-A*02:12 [13] = assay: as above; conditions: source organism: Orthohantavirus sangassouense
HLA-A*02:03 [14] = assay: as above; conditions: source organism: Orthohantavirus sangassouense
HLA-A*68:02 [15] = assay: as above; conditions: source organism: Orthohantavirus sangassouense
HLA-B*15:01 [16] = assay: IEDB peptide-MHC binding, purified MHC/competitive/fluorescence; ≥ and ≤ were set here for values at or beyond the usual limits of such assays
HLA-A*29:02 [17] = assay: IEDB peptide-MHC binding, purified MHC/competitive/fluorescence; filed as Kd, often an IC50 or EC50 that approximates it; ≥ and ≤ were set here for values at or beyond the usual limits of such assays; conditions: source organism: Yersinia pestis Nepal516
HLA-A*02:16 [18] = assay: as above; conditions: source organism: Yersinia pestis Nepal516
HLA-A*03:01 [19] = assay: as above; conditions: source organism: Yersinia pestis Nepal516
HLA-A*24:03 [20] = assay: as above; conditions: source organism: Yersinia pestis Nepal516
HLA-A*23:01 [21] = assay: as above; conditions: source organism: Yersinia pestis Nepal516
HLA-A*02:19 [22] = assay: as above; conditions: source organism: Yersinia pestis Nepal516
HLA-A*02:11 [23] = assay: as above; conditions: source organism: Yersinia pestis Nepal516
HLA-A*02:12 [24] = assay: as above; conditions: source organism: Yersinia pestis Nepal516
HLA-A*02:03 [25] = assay: as above; conditions: source organism: Yersinia pestis Nepal516
HLA-B*27:03 = assay: as above; conditions: source organism: Yersinia pestis Nepal516
HLA-A*68:02 [26] = assay: as above; conditions: source organism: Yersinia pestis Nepal516
[27] = source organism: Vaccinia virus
[28] = source organism: Orthohantavirus dobravaense
[29] = source organism: Zaire ebolavirus
[30] = source organism: Yersinia pestis Nepal516

## IDILRSLET
HLA-B*08:01; [27]
  IC50: ≥ 514 µM
HLA-A*02:01 [1]; [27]
  IC50: 44.3 µM

## ITPKTHFLF
HLA-A*24:02 [2]; source organism: Giardia intestinalis ATCC 50581
  Kd: 0.0002 µM

## IWGGTSFLF
HLA-A*24:02 [2]; source organism: Salmonella enterica subsp. enterica serovar Typhi
  Kd: ≤ 0.0001 µM

## KHHTKIDSM
HLA-B*08:01; source organism: Variola virus
  IC50: ≥ 209 µM
HLA-A*24:02 [3]
  IC50: 1.69 µM

## MRNTIMASK
HLA-B*27:05
  Kd: 0.144 µM
HLA-B*15:01 [4]; [28]
  Kd: ≥ 20 µM
HLA-B*39:01; [28]
  Kd: ≥ 20 µM
HLA-A*02:01 [5]; [28]
  Kd: ≥ 20 µM
HLA-A*69:01; [28]
  Kd: ≥ 20 µM
HLA-B*51:01
  Kd: ≥ 20 µM
HLA-B*57:01; [28]
  Kd: ≥ 20 µM
HLA-B*15:17; [28]
  Kd: ≥ 20 µM
HLA-A*26:01; [28]
  Kd: ≥ 20 µM
HLA-B*46:01; [28]
  Kd: ≥ 20 µM
HLA-B*18:01; [28]
  Kd: ≥ 20 µM
HLA-A*29:02 [6]
  Kd: ≥ 20 µM
HLA-A*02:16 [7]
  Kd: ≥ 20 µM
HLA-A*03:01 [8]
  Kd: ≥ 20 µM
HLA-A*24:03 [9]
  Kd: ≥ 20 µM
HLA-A*23:01 [10]
  Kd: ≥ 20 µM
HLA-A*02:19 [11]
  Kd: ≥ 20 µM
HLA-A*02:11 [12]
  Kd: ≥ 20 µM
HLA-A*02:12 [13]
  Kd: ≥ 20 µM
HLA-A*02:03 [14]
  Kd: ≥ 20 µM
HLA-A*68:02 [15]
  Kd: ≥ 20 µM

## RQLAKAIIT
HLA-B*15:01 [16]; source organism: Vaccinia virus Copenhagen
  IC50: 40.8 µM

## SFERFEIF
HLA-A*24:02 [2]; source organism: Influenza A virus (A/Harbin/1/1988(H1N2))
  Kd: 0.237 µM

## VSHLTTLAT
HLA-B*15:01 [16]; [29]
  IC50: 28.7 µM
HLA-A*02:01 [1]; [29]
  IC50: ≥ 719 µM

## YADGGQWYN
HLA-A*29:02 [17]
  Kd: ≥ 20 µM
HLA-A*02:16 [18]
  Kd: ≥ 20 µM
HLA-B*15:01 [4]; [30]
  Kd: ≥ 20 µM
HLA-A*03:01 [19]
  Kd: ≥ 20 µM
HLA-A*24:03 [20]
  Kd: ≥ 20 µM
HLA-B*39:01; [30]
  Kd: ≥ 20 µM
HLA-A*23:01 [21]
  Kd: ≥ 20 µM
HLA-A*02:19 [22]
  Kd: ≥ 20 µM
HLA-A*02:01 [5]; [30]
  Kd: ≥ 20 µM
HLA-A*69:01; [30]
  Kd: ≥ 20 µM
HLA-A*02:11 [23]
  Kd: 0.0562 µM
HLA-A*02:12 [24]
  Kd: ≥ 20 µM
HLA-B*57:01; [30]
  Kd: ≥ 20 µM
HLA-B*15:17; [30]
  Kd: ≥ 20 µM
HLA-A*02:03 [25]
  Kd: ≥ 20 µM
HLA-A*26:01; [30]
  Kd: ≥ 20 µM
HLA-B*27:03
  Kd: ≥ 20 µM
HLA-B*46:01; [30]
  Kd: ≥ 20 µM
HLA-A*68:02 [26]
  Kd: ≥ 20 µM
HLA-B*18:01; [30]
  Kd: ≥ 20 µM

## YQSYSENGM
HLA-B*15:01 [16]; [29]
  IC50: 16.7 µM
HLA-A*02:01 [1]; [29]
  IC50: 27.9 µM
